From PMC7611853 (Nature cell biology, 2021)
Where a chain is given by its changes, count along the chain named. Names and notes keep the numbering of the source.

B1: Cdc19^WT (wild-type pyruvate kinase Cdc19, strep-tagged, recombinant) (enzyme, S. cerevisiae, UniProt P00549 1-500, looked up)
chain: MSRLERLTSLNVVAGSDLRRTSIIGTIGPKTNNPETLVALRKAGLNIVRMNFSHGSYEYHKSVIDNARKSEELYPGRPLAIALDTKGPEIRTGTTTNDVDYPIPPNHEMIFTTDDKYAKACDDKIMYVDYKNITKVISAGRIIYVDDGVLSFQVLEVVDDKTLKVKALNAGKICSHKGVNLPGTDVDLPALSEKDKEDLRFGVKNGVHMVFASFIRTANDVLTIREVLGEQGKDVKIIVKIENQQGVNNFDEILKVTDGVMVARGDLGIEIPAPEVLAVQKKLIAKSNLAGKPVICATQMLESMTYNPRPTRAEVSDVGNAILDGADCVMLSGETAKGNYPINAVTTMAETAVIAEQAIAYLPNYDDMRNCTPKPTSTTETVAASAVAAVFEQKAKAIIVLSTSGTTPRLVSKYRPNCPIILVTRCPRAARFSHLYRGVFPFVFEKEPVSDWTDDVEARINFGIEKAKEFGILKKGDTYVSIQGFKAGAGHSNTLQVSTV
B2: Cdc19^ΔFBP (Cdc19 point-mutant T403E unable to bind FBP, strep-tagged, recombinant) (enzyme, S. cerevisiae, UniProt P00549 1-500, looked up)
chain: B1 chain with T403E

Assays:
[1] = biological target: the molecule itself; assay: negative-stain TEM, circular dichroism and amyloid-dye
[2] = biological target: the molecule itself; assay: centrifugation

Protein	binding result [1]	binding result [2]
B1	binds	
B2		binds
